Test results taken from the supplement of paper PMC9170038.

System: MS2 coat protein
Assay: apparent KD of MS2 coat protein; designed switch direction (-1 OFF switch, 1 ON switch): -1; higher = weaker reporter binding
How it was run: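 Designed RNA switches with common flanks were made on Illumina chips by stalled E. coli RNA polymerase. Titration with SNAP-549-labelled MS2 coat protein doubled from 0.7 or 1.5 nM up to 3 µM. Apparent KD is each design's median over clusters after curve-fitting normalised fluorescence.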

[1] = input ligand: microRNA oligo, concentration not stated
[2] = Eterna round: R95, input ligand: FMN 200 uM
[3] = Eterna round: R95, input ligand: microRNA oligo, concentration not stated
[4] = Eterna round: R95, input ligand: none

Row | Sequence | apparent KD of MS2 coat protein (input ligand: FMN 200 uM) [nM] | apparent KD of MS2 coat protein (input ligand: none) [nM] | apparent KD of MS2 coat protein [3] [nM] | other results
1 | AGGGACGUAGGAUAUACCGUGUAGUACAUGAGGAUCACCCAUGUUUGCCUCAUAGUCCACGUAGAAGGAUGUGACA [Eternabot (L2) Solution 37] (Eterna round: R97, puzzle: Exclusion 5) | 70.9 | 64.1 | – | –
2 | CAUUAGCGGGCAGGAUAUCCUAAUAAGCAGAAUGGAGAAGGGCCAAGGUCAACUUGAGGAUCACCCAAGUCAUAAAGUUGGCCC [Mutated MS2 EX1.29] (Eterna round: R96, puzzle: Exclusion NG 1) | 10.9 | 13.9 | – | apparent KD of MS2 coat protein [1]: 11.6 nM
3 | CCAAGAUAAGGAUAUUGAAGGUUCGACAUGAGGAUCACCCAUGUUAUGUUGGAAAAGGGACAAGAAGGUAUGAAAA [salish99_ex5_r4_215] (Eterna round: R97, puzzle: Exclusion 5) | 27.6 | 34.3 | – | –
4 | AGCCCUGCAGGAUAUGCCCGGGAUAACAUGAGGAUCACCCAUGUGACUGAUUGUUAUUCUGCAGAAGGGCAUGGGA [JL-EX5-4.14 ViennaUCT mod] (Eterna round: R97, puzzle: Exclusion 5) | 335 | 494 | – | –
5 | GGUACUAACACGAAAGUGUUAGUACAAUAAGCUUGUGAAACAUGAGGAUCACCCAUGUCCUCAUAAGCUCGUCUUAA [salish99_TOv2_r3_004] (puzzle: Sensor v3, turn-off variant 2) | – | – | 238 | apparent KD of MS2 coat protein [2]: 14.4 nM; apparent KD of MS2 coat protein [4]: 13.3 nM
6 | UCUCGACAUGAGGAUCACCCAUGUCAGGAUAUUGUAUUGGAGGUGUUUAACCUUAUGGCAAGAAGGGAUGUGUG [LRO-Excl1-25] (puzzle: Exclusion 1) | – | – | 22.9 | –
7 | AGAAACAGAGGAUAUCGCGGACAGCACAUGAGGAUCACCCAUGUGAUGCUCCGCGGGCCGCGAGAAGGCUGAAAUG [Rateatge] (Eterna round: R96, puzzle: Exclusion 5) | – | – | – | apparent KD of MS2 coat protein [1]: 11.2 nM
8 | AAAUCGCAAGGAUAUCGUCAGUCUGACAUGAGGAUCACCCAUGUUAUCUUGGUAUCAGAGCGAGAAGGUGCAAAGU [Erbied] (puzzle: Exclusion 5) | – | – | 12.5 | –
9 | UUUUUCUUUGUAGGAUAUCGUUUUUUUUUUUUUCGAGAAGGACAUGAGGAUCACCCAUGUUUCAAAAUUUUUUUUUUUUUUUUU [First try] (Eterna round: R96, puzzle: Exclusion NG 1) | 25.1 | 17.8 | – | apparent KD of MS2 coat protein [1]: 13.3 nM
10 | CUUUUGUGAGGAUAUUAGUAGUAUAUAAAUAAAAUUACUACUGAGAAGGCACAUGAGGAUCACCCAUGUUCCUC [salish99_ex4_r3_052] (puzzle: Exclusion 4) | – | – | 30.4 | –
11 | UUGUUACAUGAGGAUCACCCAUGUGAGGAUAUGGUUCAGUAAUGUAAUGUAAAGUAAUCCAGAAGGCACAUGUU [1st #26] (Eterna round: R97, puzzle: Exclusion 1) | 1290 | 756 | – | –
12 | CCUUCAGUAGUUAGGAUAUUUGGCGUCGAGGCGCAAGAGAAGGGACAUGAGGAUCACCCAUGUGAGUAUGGUAG [Eternabot (L1) Solution 35] (Eterna round: R97, puzzle: Brourd's mod of Exclusion 4) | 61.9 | 63.1 | – | –
13 | CCGCAAAAGCAGGAUAUCGUAUCGGAUACGAUACGAGAAGGGCUAACAUGAGGAUCACCCAUGUGUCCUAGCGG [Fiskers Ex 6 - 38] (puzzle: Exclusion 6) | – | – | 15.4 | –
14 | AUUUUGUCAGGAUAUUGUUAGUUUAGUUGUUUGUAUUAGUUCGAGAAGGGACAUGAGGAUCACCCAUGUGAUUA [Ex4 #73] (Eterna round: R97, puzzle: Exclusion 4) | 148 | 92.2 | – | –
15 | ACAUGACAGCUAGGAUAUAUAUGACAUGAGGAUCACCCAUGUUGUCCCAUGUUGACGAAAACCGAAUAGAAGGAGCCACCCAUG [Ex NG2 #2] (Eterna round: R96, puzzle: Exclusion NG 2) | 86.1 | 71.4 | – | apparent KD of MS2 coat protein [1]: 53.6 nM
16 | GCCGUUGAAGGAUAUGCUGAACUUGAGGUGCGUCCAUCCACACAUGAGGAUCACCCAUGUAGAAGGUCAACGGA [Eternabot (L2) Solution 67] (Eterna round: R97, puzzle: Exclusion 2) | 456 | 287 | – | –
17 | AUUGUUUUAGGAUAUACAUGAGGAUCACCCAUGUGUGCGAUGCGGAUCGGGAAAGCCUGUAGAAGGAAGACAUG [Eternabot (L1) Solution 74] (Eterna round: R97, puzzle: Exclusion 3) | 33.4 | 30.8 | – | –
18 | AAGGACAGAGGAUAUACAUAGAUACAGAUUCAUGUAGAACUACAUGAGGAUCACCCAUGUAGAAGGCUGUCCUA [Fiskers Ex 2 - 2] (puzzle: Exclusion 2) | – | – | 29.4 | –

Row | Sequence | apparent KD of MS2 coat protein (input ligand: FMN 200 uM) [nM] | apparent KD of MS2 coat protein (input ligand: none) [nM] | apparent KD of MS2 coat protein [3] [nM] | other results
19 | UUCUGCACGCUGCGGUCCUACAUGAGGAUCACCCAUGUGGUCUGGUGGCGUGGGUCACCGGACUUGGCUCGUCUUGC [salish99_S_TOV1_R5_053] (Eterna round: R97, puzzle: Sensor, turn-off variant 1) | 20.1 | 21.1 | – | –
20 | AAACGACAUGAGGAUCACCCAUGUGGCCCUUAGACUCGUAUCGAGGAUAUCCAGGGCCGGGCCGUGGAGAAGGCGAAUUAAAAU [Cetele] (Eterna round: R96, puzzle: Exclusion NG 3) | 63.8 | 43.6 | – | apparent KD of MS2 coat protein [1]: 28.8 nM
21 | GGACCUCCUGAGGAUAUUGUAUCACCUGACUGAUAAGAAGGCAGAACAUGAGGAUCACCCAUGUGGGUACUCGG [Bingo-Bango-15] (Eterna round: R97, puzzle: Exclusion 6) | 147 | 190 | – | –
22 | CACCGUUAGUGAGGAUAUCUUACAUGAGGAUCACCCAUGUAAUAAAUGAGAAUUUCGGAUGUAUGAGAGAAGGCACAAAUCGGC [Ostricism 53 - Jieux - Exclusion NG 2] (Eterna round: R96, puzzle: Exclusion NG 2) | 21.2 | 22.7 | – | apparent KD of MS2 coat protein [1]: 18.5 nM
23 | GAGCCGCGAGGAUAUACAGACGAGUCCAUUACGUGUCUCGGACUUGAGGAUCACCCAAGUAGAAGGCGUCUCAG [salish99_ex2_r4_629] (Eterna round: R97, puzzle: Exclusion 2) | 34.3 | 34.2 | – | –
24 | CCGGAAAUGAAGGAUAUAGGCGUCGAUAGACUCCUAGAAGGUCAUACAUGAGGAUCACCCAUGUGUCCUACCGG [Fiskers Ex 6 - 75] (puzzle: Exclusion 6) | – | – | 14.7 | –
25 | AUAUUGUGAGGAUAUGAACUUAGUAUCGAAAGAUUCUAAGUUCAGAAGGCACAUGAGGAUCACCCAUGUUUCUC [Long static hairpin v20] (Eterna round: R97, puzzle: Exclusion 4) | 808 | 81.9 | – | –
26 | GGAUCUUGGGUCAGGAUAUGCUGACAGCCAUGUCAGCAGAAGGGACAUGAGGAUCACCCAUGUGCUCGGUUUUG [Magic-19] (puzzle: Brourd's mod of Exclusion 4) | – | – | 10.1 | –
27 | GGAGGACGAGCAGGAUAUUUUCACAUGAGGAUCACCCAUGUGUAUUCAGGGUAAUCCUCCGCCGAAAAGAAGGGUUCGGAAGAA [JL ViennaUCT Socedi mod 2] (Eterna round: R96, puzzle: Exclusion NG 2) | 62.9 | 47.2 | – | apparent KD of MS2 coat protein [1]: 39 nM
28 | CCGUCACAUGAGGAUCACCCAUGUCAGGAUAUCUAUCAUAGCAUCGAAAGAUGCGGGUAGAGAAGGGACUAUCC [ChP Ext 10-04-2015 #7] (puzzle: Exclusion 1) | – | – | 20.3 | –
29 | ACCAGAAUAGGAUAUAACGAAAAGGACAUGAGGAUCACCCAUGUGACUACUAUUCCCUUGUUAGAAGGAUUGCGGG [Eternabot (L2) Solution 48] (Eterna round: R97, puzzle: Exclusion 5) | 32 | 24.9 | – | –
30 | CCAGUGUAAGGAUAUGACAAUGGUAUCUUCGGAUACCAUUGUCAGAAGGUACAUGAGGAUCACCCAUGUAACAC [Ex4-3: 12] (puzzle: Exclusion 4) | – | – | 15.3 | –
31 | UACAUGAGGAUCACCCAUGUUUUGUCGUGUAUGGUAUUUAUCUAGGAUAUCAAUUUGUUUAUGUAUGAGAAGGAGAAUAUUAAU [JMF's solution 72] (Eterna round: R96, puzzle: Exclusion NG 3) | 32.9 | 35.6 | – | apparent KD of MS2 coat protein [1]: 28.4 nM
32 | CAGUACAGAGGAUAUACAUGAGGAUCACCCAUGUGUUUCAGCUAGGAGACUAGCGAAAGUAGAAGGCUGUACUA [salish99_ex3_r4_003] (Eterna round: R97, puzzle: Exclusion 3) | 25.7 | 9.41 | – | –
33 | GGUUGGCGAGGAUAUACAUGAGGAUCACCCAUGUGAGUGAAAAAAGUGAGGAAGAAAAGUAGAAGGCGCUGACG [salish99_ex3_r3_008] (puzzle: Exclusion 3) | – | – | 254 | apparent KD of MS2 coat protein [2]: 288 nM; apparent KD of MS2 coat protein [4]: 196 nM
34 | GCUAGGAAUGUCAGGAUAUGCUGUUCCUUGGAACAGCAGAAGGGACAUGAGGAUCACCCAUGUGCUAACCUAGC [Mat - Exclusion 4 - JL Mod - D5] (Eterna round: R97, puzzle: Brourd's mod of Exclusion 4) | 99.2 | 24.4 | – | –
35 | GUCAUCAAACAUGGGUUAAACAUGAGGAUCACCCAUGUUAUCAAGUUUUUUGCUCGUCUUAUAAUAAGUUUGAUGAC [Antenna 12 - Jieux - Sensor, turn-off variant 1] (Eterna round: R97, puzzle: Sensor, turn-off variant 1) | 35.7 | 41 | – | –
